Test results published in paper PMC3956856, “Interaction of Kinase-Interaction-Motif Protein Tyrosine Phosphatases with the Mitogen-Activated Protein Kinase ERK2” (PLoS ONE, 2014).

What was measured:
ERK2 [1] = target: T1, ERK2 (Rattus norvegicus, UniProt P63086); details: [17], cited from earlier work; for Kd: ERK2, values previously published, ref [14], [15], [18]; for tighter binding to ERK2 than to p38α: HePTP residues 15–339 and HePTP KIM-peptide residues 15–31, ref [16]
T1 construct: gene Mapk1; made in house
Source text: Over the last years different groups, including ours, have studied the interaction of MAPK regulatory proteins, as well as substrates, with different MAPKs, especially ERK2, p38 and JNK [12]–[17]. However, while a plethora of cell biological data is available, much less systematic interaction data using quantitative methods, such as isothermal titration calorimetry (ITC), has been reported. This is of special interest, as recent studies have shown that while KIM-peptides derived from KIM-containing regulatory proteins and substrates readily discriminate between ERK2/p38 and JNK, they discr ... || We used ITC measurements to determine the binding affinity of STEP and PTPSL for unphosphorylated ERK2 ( Table 1; Figure S1). […] This complex has a ∼3-times lower Kd (tighter binding) than the next tightest complex, ERK2:PTPSL, and a nearly 70-fold greater affinity than the weakest complex, p38α:HePTP [15]. Like STEP, PTPSL binds ERK2 more tightly (∼3.5-fold) than p38α. We also tested peptides that include the kinase specificity s ... || Figure 3 Regulatory protein-MAPK interaction strengths. The binding strengths of each KIM-PTP (KIM peptides and KIM-containing MKBDs (in orange font), light blue; KIMKIS peptides, light purple; proteins, light pink) to p38α and ERK2 represented from weakest to tightest (largest Kd to smallest Kd) binding affinity; ‘^†’ indicates values previously published, [15], [17], [18]. KIM-PTP:MAPK complexes determined to be extended using SAXS written in normal text; KIM-PTP:MAPK complexes determined to be compact written in italics; *, compact nature of the ERK2-PTPSL complex determined by ...

ERK2 [2] = target: T1, ERK2; test: Isothermal titration calorimetry with ERK2; format: binding
Procedure: The PTPSLKIM peptide (residues 331–348), STEPKIM (residues 213–229) and STEPKIMKIS (residues 213–256) were synthesized, HPLC purified and verified by mass spectrometry (MS) (>98% purity; Biosynthesis, Inc.). Expression and purification of ERK2 and PTPSLKIMKIS (residues 332–373) was carried out as previously described, [15]. PTPSL (residues 332–655, human), STEP (residues 213–539, mouse) and PSChimera (PTPSL residues 332–373 with STEP residues 257–539; gene synthesized by DNA 2.0) were expressed and purified using the protocol previously described in detail for STEPCAT (residues 244–539). The DUSP16 MAPK binding domain (residues 5–138, human) was expressed and purified as previously described. All purified proteins were stored at −80 °C until use at which point they were thawed and exchanged into the appropriate buffer using size exclusion chromatography (SEC; Superdex 75 26/60; GE Healthcare). The final protein buffer was dependent on the experiment performed. For ITC experiments, the final SEC purification was performed in ITC buffer (10 mM Tris pH 7.5, 150 mM NaCl, 0.1 mM EDTA, 0.5 mM TCEP); for SAXS experiments, the final SEC purification was performed in SAXS buffer (50 mM HEPES pH 6.8, 150 mM NaCl, 5 mM dithiothreitol). PTPSLKIM, STEPKIM and STEPKIMKIS peptides were solubilized in ITC buffer prior to ITC measurements.
ITC experiments were performed at 25 °C using a VP-ITC microcalorimeter (Microcal Inc.). Titrant (10 μL per injection) was injected into the sample cell over a period of 20 seconds with a 250 second interval between titrations to allow for complete equilibration and baseline recovery. 28 injections were delivered during each experiment and the solution in the sample cell was stirred at 307 rpm to ensure rapid mixing. To determine the thermodynamic parameters (ΔH, ΔS, ΔG) and binding constants (K) of the ERK2:PTPSLKIM, ERK2:PTPSL, ERK2:STEP and ERK2:PSChimera interactions, PTPSLKIM, PTPSL, STEP and PSChimera were titrated into ERK2. To determine the same parameters for the ERK2:STEPKIM, ERK2:PTPSLKIMKIS and ERK2:STEPKIMKIS interaction, ERK2 was titrated into the peptides. Titrants were chosen based on the amount of purified protein/peptide available for the experiment. For all titrations the concentrations were slightly varied to ensure independence of the Kd from the protein/peptide concentrations. Data were analyzed with a one-site binding model assuming a binding stoichiometry of 1∶1 using Origin 7.0 software. A nonlinear least-squares algorithm and the titrant and sample cell concentrations were used to fit the heat flow per injection to an equilibrium binding equation, providing values of the stoichiometry (n), change in enthalpy (ΔH) and binding constant (K). All data were repeated in triplicate.

p38α = details: ref [14], cited from earlier work; for Kd: values previously published, [15], [17], [18]
Source text: We used ITC measurements to determine the binding affinity of STEP and PTPSL for unphosphorylated ERK2 ( Table 1; Figure S1). […] This complex has a ∼3-times lower Kd (tighter binding) than the next tightest complex, ERK2:PTPSL, and a nearly 70-fold greater affinity than the weakest complex, p38α:HePTP [15]. Like STEP, PTPSL binds ERK2 more tightly (∼3.5-fold) than p38α. We also tested peptides that include the kinase specificity s ... || We also generated a chimeric protein in which we fused the PTPSLKIMKIS to STEPCAT (PSchimera; Figure 1A ). […] Thus, they only adopt a single conformation when they bind their respective MAPKs. This is different from the MAPK-binding domains (MKBD) of MAPK phosphatases (MKP; dual specificity phosphatases; DUSPs), [26]. In MKPs, the KIM sequence is part of a stable, folded domain and thus adopts a single, ordered conformation in both the unbound and MAPK-bound states, [28]. […] Our ... || (+ 1 further places)

[3] = target: T2, extracellular signal-regulated kinase 2 (ERK2), unphosphorylated (UniProt P63086 1-358); test: ITC; ERK2 titrated into STEPKIM, PTPSL KIMKIS or STEP KIMKIS in the cell; 25 °C; 10 mM Tris pH 7.5, 150 mM NaCl, 0.1 mM EDTA, 0.5 mM TCEP; one-site model; triplicate; details: both partners purified
T2 construct: ERK2 (extracellular signal-regulated kinase 2), unphosphorylated; also called MAPK; source: final SEC (Superdex 75 26/60)

ERK2 [4] = target: T1, ERK2; details: ref [16], cited from earlier work
[5] = target: T2, extracellular signal-regulated kinase 2 …; test: ITC; PTPSLKIM, PTPSL, STEP or PSChimera titrated into ERK2 in the cell; 25 °C; 10 mM Tris pH 7.5, 150 mM NaCl, 0.1 mM EDTA, 0.5 mM TCEP; one-site model; triplicate; details: both partners purified
[6] = ERK2:HePTP resting-state complex

In the case of “HePTPKIM: HePTP KIM-peptide (residues 15–31) (TLSLGAAMTQPPPEKTP; KIM peptide; UniProt P35236 15-31, looked up, fragment) [reference compound]”, the Kd (ERK2 [1]) is listed as 1.28 ± 0.11 µM, the “tighter binding to ERK2 than to p38α” value (ERK2 [1]) is listed as roughly 4 times and the “differences in affinity of KIM peptides for ERK2 versus p38α” value (ERK2 [2]; KIM peptides of the KIM-PTPs) is listed as 4.0. The Kd (p38α) was 5.15 ± 1.29 µM.

In the case of “HePTPKIMKIS: HePTP KIMKIS peptide, values previously published (VRLQERRGSNVALMLDVRSLGAVEPICSVNTPREVTLHFLRT)”, the Kd (ERK2 [1]) is given as 0.679 ± 0.122 µM.

B1: STEP KIMKIS peptide (STEP residues 213-256) (peptide, UniProt P54830 213-256, looked up)
peptide: MGLQERRGSNVSLTLDMCTPGCNEEGFGYLVSPREESAHEYLLS
notes: STEP (PTPN5), residues 213-256 (KIM and KIS); mouse is stated for the STEP 213-539 construct; source: synthetic peptide (Biosynthesis, Inc.), HPLC purified, >98% purity
In the case of B1, the Kd [3] is reported as 0.123 µM.

B2: STEPKIM peptide (STEP residues 213-229) (peptide, UniProt P54830 213-229, looked up)
peptide: MGLQERRGSNVSLTLDM
notes: STEP (PTPN5, striatal enriched protein tyrosine phosphatase), residues 213-229 (KIM); mouse is stated for the STEP 213-539 construct; source: synthetic peptide (Biosynthesis, Inc.), HPLC purified, >98% purity
Molecule B2 has a Kd [3] of 0.546 µM.

B3: PTPSL KIMKIS (PTPSL residues 332-373) (peptide, UniProt Q15256 332-373, looked up)
chain: GLQERRGSNVSLTLDMSSLGNIEPFVSIPTPREKVAMEYLQS
notes: PTPSL/PTPBR7 (PTPRR), residues 332-373 (KIM and KIS); human is stated for the PTPSL 332-655 construct; Recombinant, not synthetic; source: final SEC
Molecule B3 has a Kd [3] of 0.825 µM.

B4: HePTP: HePTP (residues 15–339), hematopoietic protein tyrosine phosphatase (protein, UniProt P35236 15-339, looked up, fragment)
chain: TLSLGAAMTQPPPEKTPAKKHVRLQERRGSNVALMLDVRSLGAVEPICSVNTPREVTLHFLRTAGHPLTRWALQRQPPSPKQLEEEFLKIPSNFVSPEDLDIPGHASKDRYKTILPNPQSRVCLGRAQSQEDGDYINANYIRGYDGKEKVYIATQGPMPNTVSDFWEMVWQEEVSLIVMLTQLREGKEKCVHYWPTEEETYGPFQIRIQDMKECPEYTVRQLTIQYQEERRSVKHILFSAWPDHQTPESAGPLLRLVAEVEESPETAAHPGPIVVHCSAGIGRTGCFIATRIGCQQLKARGEVDILGIVCQLRLDRGGMIQTAEQ
For B4, the Kd (ERK2 [1]) is given as 0.371 ± 0.04 µM, the “tighter binding to ERK2 than to p38α” value (ERK2 [1]) is given as roughly 7 times and the “maximum dimension (Dmax)” value (ERK2 [4]; [6]) is given as 110 Å. For the same molecule, the “radius of gyration (Rg)” value (ERK2 [4]; [6]) was 33.3 Å, the “shape of the complex with ERK2 (in words)” value (ERK2 [4]; resting-state complex, SAXS) was “highly extended in solution” and the Kd (p38α) was 2.57 ± 0.65 µM.

B5: PTPSLKIM peptide (PTPSL residues 331-348) (peptide, UniProt Q15256 331-348, looked up)
peptide: IGLQERRGSNVSLTLDMS
notes: PTPSL/PTPBR7 (PTPRR, PTP STEP-like), residues 331-348 (KIM); human is stated for the PTPSL 332-655 construct; source: synthetic peptide (Biosynthesis, Inc.), HPLC purified, >98% purity
B5 showed a Kd [5] of 0.463 µM and a dH [5] of -98.3 kJ/mol.

B6: PS_(Chimera) (PTPSL residues 332-373 with STEP residues 257-539) (other, human | mouse, UniProt Q15256 332-373, looked up)
chain: GLQERRGSNVSLTLDMSSLGNIEPFVSIPTPREKVAMEYLQSASRVLRAEELHEKALDPFLLQAEFFEIPMNFVDPKEYDIPGLVRKNRYKTILPNPHSRVRLTSPDPEDPLSSYINANYIRGYSGEEKVYIATQGPIVSTVADFWRMVWQERTPIIVMITNIEEMNEKCTEYWPEEQVVHDGVEITVQKVIHTEDYRLRLISLRRGTEERSLKHYWFTSWPDQKTPDRAPPLLHLVREVEEAAQQEGPHCSPIIVHCSAGIGRTGCFIATSICCQQLRREGVVDILKTTCQLRQDRGGMIQTCEQYQFVHHAMSLYEKQLSLQS
notes: PTPSL (PTPRR), residues 332-373 (KIM and KIS); human is stated for the PTPSL 332-655 construct; STEP (PTPN5), residues 257-539 (catalytic domain); mouse is stated for the STEP 213-539 construct; Chimera of PTPSL KIMKIS fused to STEPCAT; source: gene synthesized by DNA 2.0; final SEC
In the case of B6, the “relative binding to ERK2 (in words)” value (ERK2 [2]; ERK2, ITC) is given as “binds to ERK2 with about equal binding strength as STEP”, the TΔS (ERK2 [2]; unphosphorylated ERK2, ITC, 25 °C, 10 mM Tris pH 7.5, 150 mM NaCl, 0.1 mM EDTA, 0.5 mM TCEP, average and standard deviation, triplicate) is given as -35.6 ± 2.9 kJ/mol and the “relative binding to p38α (in words)” value (p38α) is given as “binds marginally more tightly to p38α than any of the WT-KIM-PTPs”. For the same molecule, the Kd [5] was 0.047 µM and the dH [5] was -77.4 kJ/mol.
